Experimental data as given in patent US6613878B1, “PCNA binding substance” (Cyclacel Limited, priority 1995, dated 2003).
Ends that are not written are not given here.

Key:
PCNA [1] = biological target: T1, PCNA (Homo sapiens, UniProt P12004); test: Peptide precipitation of PCNA from HeLa cell lysate, PC10 Western blot; format: binding; parameters: HeLa cell lysate was added to the washed beads to a final protein concentration of 1 mg/ml; endogenous in cells; host or cells: HeLa; conditions: 2.7 μg peptide on beads; HeLa lysate 1 mg/ml; PC10 immunoblot
T1 sequence (P12004 whole entry): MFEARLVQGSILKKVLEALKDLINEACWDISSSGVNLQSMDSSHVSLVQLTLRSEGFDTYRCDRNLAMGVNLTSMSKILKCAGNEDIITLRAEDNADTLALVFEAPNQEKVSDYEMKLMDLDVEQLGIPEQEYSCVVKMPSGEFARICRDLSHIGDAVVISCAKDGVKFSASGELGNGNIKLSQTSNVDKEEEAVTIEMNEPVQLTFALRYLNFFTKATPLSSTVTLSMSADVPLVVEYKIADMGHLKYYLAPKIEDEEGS
Description: Twenty amino acid peptides with 15 amino acid overlaps were synthesized (Chiron Mimotopes, Australia) across the 89 amino acids from the C-terminal region of Fen1 identified in the two hybrid screen as the PCNA binding site on Fen1. These peptides were linked via residues SGSG (SEQ ID NO:3) at the amino acid terminus to biotin. 2.7 μg of each peptide was incubated with 10 μl streptavidin agarose beads (Sigma) in phosphate buffered saline (PBS) for 1 hour at room temperature (r.t.) then beads were washed extensively in PBS and recovered each time by centrifugation at 11,600 g. HeLa cell lysate was added to the washed beads to a final protein concentration of 1 mg/ml and incubated with the beads on ice for 1 hour. Beads were extensively washed in PBS with 220 mM NaCl, then bound proteins removed by boiling for 8 minutes in SDS loading buffer with 0.2 M DTT. Proteins were separated on 10% SDS-PAGE then electrophoretically transferred to nitrocellulose. Blots were blocked then incubated for 1 hour r.t. with PC 10 hybridoma supernatant (Waseem & Lane, 1990) diluted 1:5 in DMEM with 10% FCS. After washing, secondary HRP-conjugated anti-mouse IgG serum at 1:1000 in 2% non-fat milk-PBS-0.2% Tween was added for 1 hour at r.t. Bound antibody was visualised using the ECL system according to the manufacturer's instructions (Amersham plc.)
To map precisely the residues of Fen1 to which PCNA binds, a series of biotinylated 20 amino acids peptides (with 15 amino acid overlaps) were synthesized representing the region of Fen1 found to interact with PCNA in the two hybrid screen (FIG. 1). Fen1 peptides (bound to streptavidin agarose beads) were incubated with human HeLa cell extracts, then beads were precipitated and bound protein analysed on immunoblots probed with monoclonal anti-PCNA antibody PC10 (Waseen & Lane, 1990).
The region of human Fen1 recognised by PCNA in the precipitation assay contains a motif highly conserved in the Fen1 family. We examined whether human PCNA could bind to his motif in the yeast homologues of Fen1, S. pombe rad2 and […]/YKL510. […]

PCNA [2] = biological target: T1, PCNA; test: Competitive ELISA: PCNA binding to immobilised FenPBP (peptide 84); parameters: made in house; used as unpurified lysate; conditions: non-biotinylated 9-mer, FIG. 4
Description: Biotinylated FenPBP (peptide 84 (SEQ ID NO:4)—see FIG. 2) was immobilised on ELISA dishes pre-coated with streptavidin. Bacterial cell lysate overexpressing recombinant human PCNA was mixed with increasing amounts of a non-biotinylated 9 amino acid peptide QTSMTDFYH (SEQ ID NO:2) derived from p21PBP (Warbrick et al., 1995), then binding of PCNA to the immobilised FenPBP was measured using polyclonal antibody 3009 against PCNA, followed by HRP-anti-rabbit antibody,and calorimetric detection at 450 nm.
ELISA plates were coated overnight at 37° C. with 100 ng of streptavidin per well. Plates were blocked with 5% non-fat milk powder in PBS, washed extensively with PBS containing 0.2% Tween 20 (PBS-T) then 100 μl FenPBP—peptide 84 (SEQ ID NO:4) (see FIG. 2)—at 10 μg/ml was added to each well. Following 1 hour incubation at r.t. in a humid chamber, wells were washed extensively. Approximately 3.5 μg total protein containing overexpressed recombinant human PCNA was mixed with varying concentrations of a 9 amino acid peptide derived from p21PBP (Warbrick et al, 1995), of the sequence QTSMTDFYH (SEQ ID NO:2) (purified by HPLC and verified by mass spectrometry) and applied to the wells for 1 hour at r.t. After extensive washing, anti-PCNA polyclonal antibody 3009 (Cox et al., manuscript in preparation) was added at 1:1000, followed by HRP-conjugated anti-rabbit IgG serum at 1:1000, and bound antibody was visualized by the TMB colormetric procedure (Harlow & Lane, 1998). Plated were read at 450 nm using a Dynatech 5000 plate reader.
Since the region of PCNA bound by Fen1 is the same as that recognised by p21^Cip1, and the motif of Fen1 required for PCNA interaction appears homologous to the critical residues of p21PBP (Warbrick et al., 1995), it is highly possible that Fen1 and p21^Cip1 might compete for binding to PCNA. We therefore tested this hypothesis using PCNA-interacting peptide 84 (SEQ ID NO:4) of Fen1 (dubbed Fen1PBP for Fen1-PCNA binding peptide) immobilised in ELISA wells. […]

PCNA precipitated from HeLa cell extract by biotinylated peptide on streptavidin agarose beads (PCNA [1])	Concentration of added peptide giving total displacement of PCNA from immobilised Fen1PBP (PCNA [2]; immobilised Fen1PBP) [mM]	Concentration of peptide that completely prevented PCNA binding to Fen1PBP (approximate molar) (PCNA [2]; immobilised biotinylated FenPBP)	Concentration of peptide that completely prevented PCNA binding to Fen1PBP (PCNA [2]; immobilised biotinylated FenPBP, antibody 3009, read at 450 nm) [µg/mL]	Substance
equal efficiency	–	–	–	85: Biotinylated 20 amino acid peptide of the human Fen1 C-terminal region containing TQGRLDDFFK (SGSGSRQGSTQGRLDDFFKVTGSL; also: biotinylated) [compound 85]
equal efficiency	–	–	–	86: Biotinylated 20 amino acid peptide of the human Fen1 C-terminal region containing TQGRLDDFFK (SGSGTQGRLDDFFKVTGSLSSAKR; also: biotinylated) [compound 86]
–	1	approximately 1 μM	1	QTSMTDFYH [Non-biotinylated 9 amino acid peptide derived from p21PBP (Warbrick et al., 1995)]
equal efficiency	–	–	–	peptide 84: Biotinylated (SGSG-linked) 20 amino acid peptide of the human Fen1 C-terminal region containing TQGRLDDFFK; Fen1-PCNA binding peptide (SGSGKRLSKSRQGSTQGRLDDFFK; also: biotinylated, site not given here)
